{"source": "paper PMC4529816", "about": "(Molecular cancer therapeutics, 2015)", "target": "T1, GAL4^DBD-SIN3B (UniProt O75182 1-1162)", "T1 sequence (looked up)": "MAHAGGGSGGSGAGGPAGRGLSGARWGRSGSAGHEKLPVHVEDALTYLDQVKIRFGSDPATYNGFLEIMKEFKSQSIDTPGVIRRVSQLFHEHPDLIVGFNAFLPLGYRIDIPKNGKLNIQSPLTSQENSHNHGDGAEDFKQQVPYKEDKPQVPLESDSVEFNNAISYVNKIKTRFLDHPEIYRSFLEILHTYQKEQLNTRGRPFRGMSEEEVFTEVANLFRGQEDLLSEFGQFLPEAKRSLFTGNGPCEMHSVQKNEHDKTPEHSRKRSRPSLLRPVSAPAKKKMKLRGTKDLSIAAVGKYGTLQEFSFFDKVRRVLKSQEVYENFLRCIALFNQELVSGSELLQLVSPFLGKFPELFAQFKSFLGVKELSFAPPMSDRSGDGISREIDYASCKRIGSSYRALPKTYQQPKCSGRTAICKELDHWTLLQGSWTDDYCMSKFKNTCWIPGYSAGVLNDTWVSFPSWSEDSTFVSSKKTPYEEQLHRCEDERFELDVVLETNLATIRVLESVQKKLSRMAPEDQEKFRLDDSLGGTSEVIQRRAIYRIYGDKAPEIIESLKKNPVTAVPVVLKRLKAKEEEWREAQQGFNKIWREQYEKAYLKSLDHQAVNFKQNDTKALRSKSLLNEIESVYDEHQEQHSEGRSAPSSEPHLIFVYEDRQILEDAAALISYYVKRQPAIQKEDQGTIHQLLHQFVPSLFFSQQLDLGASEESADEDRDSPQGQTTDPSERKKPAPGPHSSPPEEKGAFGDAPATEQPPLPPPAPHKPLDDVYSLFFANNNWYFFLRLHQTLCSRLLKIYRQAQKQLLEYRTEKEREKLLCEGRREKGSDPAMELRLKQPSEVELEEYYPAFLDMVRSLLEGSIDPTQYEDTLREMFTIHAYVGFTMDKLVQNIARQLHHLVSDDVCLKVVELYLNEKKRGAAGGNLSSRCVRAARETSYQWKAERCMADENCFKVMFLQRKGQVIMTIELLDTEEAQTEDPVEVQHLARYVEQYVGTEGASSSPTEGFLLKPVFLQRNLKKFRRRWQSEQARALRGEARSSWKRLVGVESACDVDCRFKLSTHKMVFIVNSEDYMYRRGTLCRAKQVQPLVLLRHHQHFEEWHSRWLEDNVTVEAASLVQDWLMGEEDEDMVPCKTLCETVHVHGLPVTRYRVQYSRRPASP", "assay": "two-hybrid", "data": [{"binder": "VP16^AD-MAD (natural protein, UniProt Q05195 1-221, looked up) MAAAVRMNIQMLLEAADYLERREREAEHGYASMLPYNNKDRDALKRRNKSKKNNSSSRSTHNEMEKNRRAHLRLCLEKLKGLVPLGPESSRHTTLSLLTKAKLHIKKLEDCDRKAVHQIDQLQREQRHLKRQLEKLGIERIRMDSIGSTVSSERSDSDREEIDVDVESTDYLTGDLDWSSSSVSDSDERGSMQSLGSDEGYSSTSIKRIKLQDSHKACLGL", "values": [{"measurement": "fold decrease in luciferase activity against the empty vectors", "result": 3.7, "unit": "fold"}]}]}
